# Article PMC3963902 (PLoS ONE, 2014)
# Changes are numbered by the printed parent chain.
# B1: His-tagged, selenomethionine (Se-Met) labelled LpEst1 (enzyme, Lactobacillus plantarum WCFS1, UniProt Q88Y25 1-337, looked up)
# chain: MPTINSIQTTVNGVVKIVKPFNNDIAGEQFDPHVLQTLTAFKQPAILENDLAALRSGSLTPAIADPVGDAVTVQSRNITALNRTVSVEWLTPQNVINHTVLVYFHGGAFYGGVPGNNTVLLKLVAAKSHCEILNVDYSLAPEAPAPAGILDGLAIFQYLEQRDAETMITVAGDSAGANVIMAATNLNQQLGSNRINQQLLLYPVTAPNADHAGPLWDLAAFPIIDSQRAILTNYHDLFRQLDSIMTDYYVPENFDSHSPLISPLHQENFTMTPPTTIMVGEFDPFRPQAWAYAQRLAAADTATTFIQYQGLNHAFAPLVDQYWQSQDVAQVMAAALI
# modifications: selenomethionine (Se-Met labelled)
# notes: carboxylesterase LpEst1, Lactobacillus plantarum WCFS1, UniProtKB/Swiss-Prot Q88Y25; 337 residues; Methionines replaced by selenomethionine; incorporation checked by mass spectrometry; also called Se-Met LpEst1; Se-Met labelled LpEst1 esterase
# B2: carboxylesterase LpEst1 from Lactobacillus plantarum WCFS1 (wild type, native) (enzyme, UniProt Q88Y25 1-337, looked up)
# chain: B1 chain
# notes: carboxylesterase LpEst1, Lactobacillus plantarum WCFS1, UniProtKB/Swiss-Prot Q88Y25; 337 residues, about 36.7 kDa; complete protein molecules in the crystal model; The crystals were of His-tagged protein; also called native LpEst1; wild-type protein; source: recombinant, from the expression vector pURI3-TEV-LpEst1
# B3: LpEst1 Gln189Glu mutant (enzyme, Lactobacillus plantarum WCFS1, UniProt Q88Y25 1-337, looked up)
# chain: B1 chain with Q189E
# notes: carboxylesterase LpEst1, Lactobacillus plantarum WCFS1, UniProtKB/Swiss-Prot Q88Y25; 337 residues; single point mutant Gln189Glu; Made from the wild-type vector with the mutagenic primers printed in the methods; source: recombinant, point mutant of pURI3-TEV-LpEst1; purified (IMAC on a His-Trap FF column plus size exclusion chromatography, last step in McIlvaine buffer pH 5.0)
# Columns and labels:
# [1] = biological target: the molecule itself; test: crystal structure; His-tagged Se-Met labelled LpEst1; 1 M sodium malonate, 0.5% (v/v) Jeffamine ED-2001, 100 mM HEPES pH 7.0, 5 mM DTT; space group I4, four molecules in the asymmetric unit; 2.05 A
# [2] = biological target: the molecule itself; test: SEC; analytical gel filtration on Superdex 200 10/300 GL Tricorn; 20 mM Tris-HCl pH 8.0, 0.1 M NaCl, 5 mM DTT, 0.04% sodium azide; size from Kav against standards
# [3] = biological target: the molecule itself; test: AUC; sedimentation equilibrium at 12,000 and 18,000 rpm; Gln189Glu mutant 10 uM in McIlvaine buffer pH 5.0 (Na2PO4, citric acid); fit to an ideal single species
protein,measurement,setting,value
B1,binding result,[1],binds
B2,stoichiometry N,[2],2
B3,stoichiometry N,[3],2
